Laboratory results taken from PMC6035183, “ETS transcription factors induce a unique UV damage signature that drives recurrent mutagenesis in melanoma”.

T1: ETS1 (ETS1ΔN280) (UniProt P27577 280-440)
T1 sequence: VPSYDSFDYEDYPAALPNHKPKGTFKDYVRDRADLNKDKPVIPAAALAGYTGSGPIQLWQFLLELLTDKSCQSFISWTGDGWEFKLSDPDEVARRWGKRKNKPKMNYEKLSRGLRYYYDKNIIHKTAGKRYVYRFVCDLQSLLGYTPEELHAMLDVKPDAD


Legend:
[1] = molecular target: T1, ETS1 (ETS1ΔN280); test: EMSA; 4 pmol DNA, 0-32 pmol ETS1; two shifted bands at low ETS1; 25 mM Tris-Cl pH 7.9, 10% glycerol, 6 mM MgCl2, 0.5 mM EDTA, 60 mM KCl, 0.5 mM DTT, 200 ug/ml BSA; 40 ul, 40 min on ice; 8% native PAGE; conditions: protein: recombinant; label: 5'-32P on S14 (TTCC strand); blunt
[2] = molecular target: T1, ETS1 (ETS1ΔN280); test: EMSA; 4 pmol DNA, 0-32 pmol ETS1; multiple shifted bands; 25 mM Tris-Cl pH 7.9, 10% glycerol, 6 mM MgCl2, 0.5 mM EDTA, 60 mM KCl, 0.5 mM DTT, 200 ug/ml BSA; 40 ul, 40 min on ice; 8% native PAGE; conditions: protein: recombinant; label: 5'-32P on S15 (TTCC strand); blunt

| Binder | binding result [1] | binding result [2] |
| --- | --- | --- |
| RPL13A promoter fragment (dsDNA, 5'-biotin on S13) DNA 1: GTCCAATCCGGACATTCTTCCGGTTGGACC DNA 2: GGTCCAACCGGAAGAATGTCCGGATTGGAC | binds |  |
| SDHD promoter fragment (dsDNA, 5'-biotin on S16) DNA 1: CTCGACTTCCGGTTCACCCAGCATTTCCTCTTCCCTGTT DNA 2: AACAGGGAAGAGGAAATGCTGGGTGAACCGGAAGTCGAG |  | binds |
